Experimental data as given in patent US20240026011A1 (Takeda / Millennium, published 2024).

Target: T1, EGFR (UniProt P00533 25-645, limits assumed)
T1 construct: also called target EGFR

B1: Pro90 (hEGFR1) (other)
VHH: EVQLVESGGGLVQPGGSLRLSCAASGRTFSSYAMGWFRQAPGKEREFVVAINWSSGSTYYADSVKGRFTISRDNSKNTLYLQMNSLRAEDTAVYYCAAGYQINSGNYNFKDYEYDYWGQGTLVTVSS
Kd: 2 nM
koff: 0.00044 s⁻¹
kon: 221000 M⁻¹ s⁻¹
